In patent US20110223178A1 (Human Genome Sciences, published 2011):

Assays:
[1] = target: T1, Chemokine beta-4 (CK-β4) (human, UniProt P78556 27-96, 125I label in the CCR6 membrane binding assay (Example 5)); experiment: inhibition of 125I-CK-β4 binding to CCR6 membranes by IgG1, Expt 2
T1 construct: also called CCL20; MIP-3α
Description: (§1) The ability of anti-CK-β4 antibodies of the invention to inhibit the binding of CK-β4 to CCR6 may be tested in the following assay. This assay is performed in 96-well plates and each sample is tested in triplicate. A 1:3 serial dilution of anti-CK-β4 antibody is made starting with 200 nM solution of anti-CK-β4 antibody in binding buffer (50 mM HEPES, pH7.0, 5 mM MgCl₂, 1 mM CaCl₂, 0.5% protease free BSA, 0.033% CHAPS, 0.05% Tween 20, 0.05% sodium azide). To fifty microliters of each dilution of antibody are added 25 microliters of CCR6 membranes (40 micrograms/ml in binding buffer; available from Upstate Biotechnology, Charlottesville, Va. Catalog number 50-139M.) Lastly 25 microliters of ¹²⁵I-CK-β4 (0.8 nM in binding buffer) are added to the wells containing the mixture of antibody and membranes, making for a 100 microliter reaction volume. Total binding is measured using 50 microliters of binding buffer in lieu of 50 microliters of antibody dilution.
(§2) The reaction is incubated for 3 hours at room temperature. The plates are harvested in a Tomtec Cell Harvester. The reaction is washed through a filtermat B (Perkin Elmer Life Sciences, Inc. Boston, Mass. product Number 1450-521) presoaked in 0.3% polyethylamine using an ice cold wash buffer (25 mM Hepes, 5 mM MgCl₂, 1 mM CaCl₂, 0.5M NaCl, and 0.05% Tween 20). The filter is then dried and radioactivity bound to the filter is measured using a Wallac MicroBeta Trilux (Perkin Elmer Life Sciences, Inc.).

[2] = target: T1, Chemokine beta-4 (CK-β4); experiment: inhibition of 125I-CK-β4 binding to CCR6 membranes by IgG1, Expt 1
Description: as §1, §2

[3] = target: T1, Chemokine beta-4 (CK-β4); experiment: inhibition of 125I-CK-β4 binding to CCR6 membranes by IgG1, Expt 3
Description: as §1, §2

T1 sequence (P78556 27-96 limits assumed): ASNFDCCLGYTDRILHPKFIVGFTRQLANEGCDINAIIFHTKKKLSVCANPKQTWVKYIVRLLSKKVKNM

Row | Binder | EC50 [1] | EC50 [2] | EC50 [3]
1 | IgG1 antibody comprising the VH and VL domains of scFv F076F10 (antibody, V domains shown, Whole IgG1; also called F0076F10) VH: EVQLVQSGAEVKKPGSSVKVFCKTSGGTFSSYAFGWVRQRPGQGLEWMGGIIPNFDAANYAQKFQDTVAFTADTSTNTLYLELSSLTSDDTAVYYCAREVGVHASGLGAFDIWGRGTLVTVSS VL: QSVLTQPPSVSGAPRQRVTISCSGSSSNIGDNVVNWYQQLPGKAPKLLIYYDDLLPSGVSDRFSGSKSGTSASLAISGLQSEDEADYFCAAWDDSLDAYVFGTRTKVTVLG | 0.49 nM |  | 
2 | IgG1 antibody comprising the VH and VL domains of scFv F002G03 (antibody, V domains shown, Whole IgG1) VH: QVQLVQSGAEVKKPGSSVKVSCKASGGTFNRYAISWVRQAPGQGLEWMGGIIPMFATPIYSQKFQDRVTITADESTSTAYMELSSLRSEDTAVYYCARDRTDYYDTDGYQSPDSWGKGTLVTVSS VL: DIQMTQSPSTLSASIGDRVTITCRASQGINNYLAWYQQKPGRAPKLLIYAASSLQSGVPSRFSGSGSGTDFTLTISSLQPEDFATYYCLQDSDYPLTFGGGTKLEIKR |  | 4.1 nM | 
3 | IgG1 antibody comprising the VH and VL domains of scFv F003F09 (antibody, V domains shown, Whole IgG1) VH: EVQLVQSGAEVRKPGSSVKVSCKASGDTFNNFAISWVRQAPGHGLEWVGGIIPVFNTADYAQNFTGRVTISADKATKTVYMELRSLRYDDTAVYFCARTKIELDNDAFDIWGRGTTVTVSS VL: LPVLTQPPSASGTPGQRVTISCSGSTSNIGSNAVVWYQQLPGAAPKLLIYSNDQRPSGVPDRFSGSRSGTSASLAISGLQSEDEADYYCAAWDDSRDGPWVFGGGTKVTVLG | 2.4 nM |  | 
4 | IgG1 antibody comprising the VH and VL domains of scFv F076G06 (antibody, V domains shown, IgG1) VH: QMQLVQSGAEVRKPGSSVKVSCKASGDTFNNFAISWVRQAPGHGLEWVGGIIPVFNTADYAQNFTGRVTISADKATKTVYMELRSLRYDDTAVYFCARTKIELDNDAFDIWGQGTMVTVSS VL: not shown |  |  | 1.7 nM
5 | IgG1 antibody comprising the VH and VL domains of scFv F003A09 (antibody, V domains shown, Whole IgG1) VH: QVQLVQSGAEVKKAGSSVKVSCKASGDTFSNFAISWVRQAPGHGLEWVGGIIPVFNTADYAQNFTDRVTISADKATKTVYMELRSLRSDDTAVYFCARTKIELDNDAFDIWGQGTLVTVSS VL: not shown |  | 0.3 nM | 0.46 nM
6 | IgG1 antibody comprising the VH and VL domains of scFv F002C08 (antibody, V domains shown, IgG1) VH: EVQLVESGAEVKKPGSSVKVSCKASGGTFSSYAISWVRQAPGQGLEWMGGIIPIFGTANYAQKFQGRVTITADESTSTAYMELSSLGSEDTAVYYCARESLTGDSELDLWGKGTLVTVSS VL: QSVLTQPPSVSAAPGQKVTISCSGSTSNIGNNYVSWYQQHPGKAPKLMIYDVSKRPSGVPDRFSGSKSGNSASLDISGLQSEDEADYYCAAWDDSLSEFLFGTGTKLTVLG |  |  | 2.2 nM
7 | IgG1 antibody comprising the VH and VL domains of scFv F081C09 (antibody, V domains shown, Whole IgG1; also called F0081C09) VH: QVQLVQSGAEVKKPGSSVRVSCKASGGSFSDYAIHWVRQAPGQGLEWMGGIIPIFGTANYAQKFQGRVTITADESTSTAYMELSSLRSEDTAVYYCAREAQYDDAFDIWGQRTMVTVSS VL: QSVLTQPPSVSAAPGQKVTISCSGSTSNIGNNYVSWYQQHPGKAPKLMIYDVSKRPSGVPDRFSGSKSGNSASLDISGLQSEDEADYYCAAWDDSLSEFLFGTGTKLTVLG | 0.09 nM |  | 
8 | IgG1 antibody comprising the VH and VL domains of scFv F002D02 (antibody, V domains shown, IgG1) VH: EVQLVQSGAEVKKPGSSVKVSCKASGGTFSSYAISWVRQAPGQGLEWMGGIIPIFGTANYAQKFQGRVTITADESTSTAYMELSSLRSEDTAVYYCAREDIVGAVDGFDIWGRGTLVTVSS VL: QSVLTQPPSVSAAPGQKVTISCSGSTSNIGNNYVSWYQQHPGKAPKLMIYDVSKRPSGVPDRFSGSKSGNSASLDISGLQSEDEADYYCAAWDDSLSEFLFGTGTKLTVLG |  |  | 4.5 nM
9 | IgG1 antibody comprising the VH and VL domains of scFv F003F01 (antibody, V domains shown, IgG1; The printed VL start (142) looks late against the printed VL CDR1 (159-171)) VH: EVQLVQSGAEVRKPASSVKVSCKTSGGSFNDYSFNWVRQAPGQGLEWMGSIIPVFDMADYGQNFQGRLTITADESTTTAYMELSDLTPMDTAIYYCARVAMVGATHFDIWGQGTLVTVSS VL: QSVLTQPPSASGTPGQRVTISCSGGSSNIGSNPVNWYQQVPGTAPKLLIYLSDQRPAGVPDRFSGSKSGTSASLAISGLQSEDEADYYCSTWDDSLNDPVVFGGGTKVTVLG |  | 0.2 nM | 0.13 nM
10 | IgG1 antibody comprising the VH and VL domains of scFv F076C06 (antibody, V domains shown, IgG1) VH: QVQLVQSGPEVKKPGSSVKVSCRASGGTFSTYAFSWVRQAPGQGLEWMGGIIPVFETPIYAQKLQGRLTITADTSTDTAYMELSNLRSGDTAVYYCAREWGDYYSSVSSGALHYWGRGTLVTVSS VL: QAVLTQPSSASGTPGQRVTISCSGSSSNIGNNAVNWYQQLPGTAPKLLIYNNNQWPSGVPDRFSGSKSGTSASLAVSGLQSEDEADYYCAAWDDSLNGYVFGTGTQLTVLS |  |  | 1.8 nM
